Source: patent publication US9669118B2, “Method of labelling a biologically active molecule with 5-fluoro-5-deoxypentose or a 3-fluoro-3-deoxypentose” (UNIVERSITY COURT OF THE UNIVERSITY OF ST. ANDREWS, priority 2011, dated 2017)

Test: Stability study of the conjugate in phosphate-buffered saline
Type: physicochemical
Details: 37° C.
Procedure: A stability study confirmed that the conjugate 4a is stable in phosphate-buffered saline (PBS) at least for 8 hours at 37° C., which is stable enough for PET applications.

With `N[C@@H](CCC(=O)N[C@@H](CSC1CC(=O)N(CCCCCCON=C[C@H](O)[C@H](O)[C@H](O)CF)C1=O)C(=O)NCC(=O)O)C(=O)O` (stereo partly shown) [conjugate 4a] as the molecule, how does the “stable in phosphate-buffered saline (PBS)” value read?
Its value is ≥ 8 h.
